B1: 1H10 (antibody, V domains shown)
VH: QVQLVQSGAEVKKPGASVKVSCKGSGYIFTSYDMHWVRQAPGQGLEWMGIIDPSGGSTSYAQKFQGRVTMTRDTSMSTVYMELSSLRSEDTAVYYCTRDYSWSYFDYWGQGTLVTVSS
VL: AIQMTQSPSSLSASVGDRVTITCRASQGIRIYLGWYQQKPGKAPKLLIYATSSLQSGVPSRFSGSGSGTDFTLTISSLQPEDFATYYCLQDYNYPWTFGQGTKVEIK
B2: 2D3 antibody (antibody, V domains shown)
VH: EVQLLESGGGLVQPGGSLSLSCAASGFTFSIYAMSWVRQAPGKGLEWVSAISDSGGTTYYADSVKGRFTISRDNSKNMLYLEMNSLRAEDTAIYYCAKRTRYFNGMDVWGQGTTVTVSS
VL: EIVMTQSPATLSLSPGERATLSCRASQSGSSSFLSWYQQKPGQAPRLLIYGASTRATGIPARFSGSGSGTDFTLTISSLQPEDFAVYYCQQDYNLPFTFGPGTKVDIK
B3: 1H10 antibody (antibody, V domains shown)
VH: B1 VH
VL: B1 VL

What was measured:
CD33ΔE2 = experiment: SPR (Biacore)
[1] = biological target: full-length human CD33 (CD33^FL) (UniProt P20138 18-364); experiment: SPR (Biacore)
Sequence of full-length human CD33 (CD33^FL) (P20138 18-364): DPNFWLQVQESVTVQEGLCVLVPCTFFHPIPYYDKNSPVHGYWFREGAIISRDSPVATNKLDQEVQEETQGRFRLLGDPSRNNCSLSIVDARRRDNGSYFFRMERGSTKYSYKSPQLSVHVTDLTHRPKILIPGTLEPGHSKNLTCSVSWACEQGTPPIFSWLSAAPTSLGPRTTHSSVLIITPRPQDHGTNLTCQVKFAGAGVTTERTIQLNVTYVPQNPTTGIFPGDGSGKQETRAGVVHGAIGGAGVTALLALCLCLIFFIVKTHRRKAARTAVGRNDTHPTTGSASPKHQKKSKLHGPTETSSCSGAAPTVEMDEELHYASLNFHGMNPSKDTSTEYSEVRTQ

| Binder | Kd (CD33ΔE2) | Kd [1] |
| --- | --- | --- |
| B1 | 0.136 nM |  |
| B2 |  | 4.89 nM |
| B3 |  | 3.71 nM |

From US20260167738A1 (published 2026)
